Columns and labels:
[1] = target: Streptomyces phage φBT1 integrase (Streptomyces phage φBT1)
[2] = target: Gp3 of Streptomyces phage φBT1 (recombination directionality factor, excisionase) (Streptomyces phage φBT1); test: cross-linking; purified proteins, alone or mixed, incubated with or without dimethyl suberimidate (DMS), analysed by SDS-PAGE
[3] = target: Streptomyces phage φBT1 integrase (Streptomyces phage φBT1); test: as above

| Substance | quantitative in vitro recombination (blue-white screen, white colonies): excision between attL and attR with integrase and Gp3 [1] [%] | quantitative in vitro recombination (blue-white screen, white colonies): integration between attB and attP in the presence of Gp3 (more than 90% without Gp3) [1] [%] | stoichiometry N [2] | stoichiometry N [3] |
| --- | --- | --- | --- | --- |
| Gp3 of Streptomyces phage φBT1 (recombination directionality factor, excisionase) (natural protein) | 89 | 2 | 2 |  |
| Streptomyces phage φBT1 integrase (enzyme) |  |  |  | 2 |

From paper PMC3836970
